In the supplement of paper PMC9112550, “Optimization of the antimicrobial peptide Bac7 by deep mutational scanning” (BMC Biology, 2022):

Each sequence was assayed on Escherichia coli TOP10 (assay: shrunken log2 fold change of peptide-encoding DNA abundance (4.5 h post-induction vs induction); higher = less antimicrobial activity (less host growth inhibition)). Conditions: time post-induction: 4.5 h; library: site-saturation at positions 5, 18, 19, 20.
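Also: peptides expressed intracellularly from a pBAD plasmid library in pooled LB shake-flask culture, induced with 0.3% L-arabinose, DNA abundance read by NGS, three biological replicates, DESeq2 with apeglm shrinkage.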

Row | Sequence | shrunken log2 fold change
1 | RRIRGRPPRLPRPRPRPWWWPRP | 0.152
2 | RRIRGRPPRLPRPRPRPWYEPRP | -0.14
3 | RRIRGRPPRLPRPRPRPYASPRP | 0.143
4 | RRIRGRPPRLPRPRPRPYCVPRP | -0.237
5 | RRIRGRPPRLPRPRPRPYDEPRP | 0.0538
6 | RRIRGRPPRLPRPRPRPYEQPRP | -0.157
7 | RRIRGRPPRLPRPRPRPYFSPRP | -0.00993
8 | RRIRGRPPRLPRPRPRPYFYPRP | -0.03
9 | RRIRGRPPRLPRPRPRPYGGPRP | -0.26
10 | RRIRGRPPRLPRPRPRPYGWPRP | -0.0363
11 | RRIRGRPPRLPRPRPRPYIEPRP | -0.114
12 | RRIRGRPPRLPRPRPRPYKEPRP | -0.375
13 | RRIRGRPPRLPRPRPRPYKTPRP | -0.0831
14 | RRIRGRPPRLPRPRPRPYMWPRP | -0.361
15 | RRIRGRPPRLPRPRPRPYNIPRP | -0.2
16 | RRIRGRPPRLPRPRPRPYPNPRP | -0.529
17 | RRIRGRPPRLPRPRPRPYPPPRP | -0.0824
18 | RRIRGRPPRLPRPRPRPYQKPRP | -0.00887
19 | RRIRGRPPRLPRPRPRPYQWPRP | 0.0268
20 | RRIRGRPPRLPRPRPRPYRKPRP | 0.176
21 | RRIRGRPPRLPRPRPRPYVAPRP | 0.0436
22 | RRIRGRPPRLPRPRPRPYVFPRP | -0.141
23 | RRIRGRPPRLPRPRPRPYVSPRP | -0.203
24 | RRIRGRPPRLPRPRPRPYWFPRP | 0.105
25 | RRIRGRPPRLPRPRPRPYWNPRP | -0.39

Row | Sequence | shrunken log2 fold change
26 | RRIRGRPPRLPRPRPRPYWTPRP | -0.0522
27 | RRIRGRPPRLPRPRPRPYWYPRP | -0.211
28 | RRIRHRPPRLPRPRPRPAADPRP | 0.274
29 | RRIRHRPPRLPRPRPRPADTPRP | -0.406
30 | RRIRHRPPRLPRPRPRPAEKPRP | -0.0153
31 | RRIRHRPPRLPRPRPRPAFWPRP | 0.741
32 | RRIRHRPPRLPRPRPRPAIHPRP | -0.303
33 | RRIRHRPPRLPRPRPRPAKIPRP | -0.0242
34 | RRIRHRPPRLPRPRPRPAKWPRP | -0.0376
35 | RRIRHRPPRLPRPRPRPALDPRP | -0.103
36 | RRIRHRPPRLPRPRPRPAMTPRP | -0.00367
37 | RRIRHRPPRLPRPRPRPANDPRP | -0.0802
38 | RRIRHRPPRLPRPRPRPAPHPRP | 0.223
39 | RRIRHRPPRLPRPRPRPAQGPRP | -0.197
40 | RRIRHRPPRLPRPRPRPAQIPRP | 0.276
41 | RRIRHRPPRLPRPRPRPARCPRP | 0.252
42 | RRIRHRPPRLPRPRPRPARNPRP | 0.093
43 | RRIRHRPPRLPRPRPRPASGPRP | 0.368
44 | RRIRHRPPRLPRPRPRPASKPRP | -0.0351
45 | RRIRHRPPRLPRPRPRPASLPRP | -0.0081
46 | RRIRHRPPRLPRPRPRPATQPRP | -0.038
47 | RRIRHRPPRLPRPRPRPAVWPRP | 0.261
48 | RRIRHRPPRLPRPRPRPAWIPRP | -0.0987
49 | RRIRHRPPRLPRPRPRPAWNPRP | 0.287
50 | RRIRHRPPRLPRPRPRPAYAPRP | -0.182

Row | Sequence | shrunken log2 fold change
51 | RRIRHRPPRLPRPRPRPAYCPRP | 0.119
52 | RRIRHRPPRLPRPRPRPCEAPRP | -0.136
53 | RRIRHRPPRLPRPRPRPCFLPRP | -0.0717
54 | RRIRHRPPRLPRPRPRPCGYPRP | -0.0081
55 | RRIRHRPPRLPRPRPRPCHNPRP | -0.261
56 | RRIRHRPPRLPRPRPRPCIEPRP | -0.00547
57 | RRIRHRPPRLPRPRPRPCIFPRP | -0.597
58 | RRIRHRPPRLPRPRPRPCIGPRP | -0.58
59 | RRIRHRPPRLPRPRPRPCINPRP | -0.306
60 | RRIRHRPPRLPRPRPRPCITPRP | -0.472
61 | RRIRHRPPRLPRPRPRPCKNPRP | -0.444
62 | RRIRHRPPRLPRPRPRPCLWPRP | -0.0157
63 | RRIRHRPPRLPRPRPRPCNDPRP | -0.283
64 | RRIRHRPPRLPRPRPRPCPLPRP | -0.667
65 | RRIRHRPPRLPRPRPRPCPYPRP | -0.546
66 | RRIRHRPPRLPRPRPRPCQFPRP | -0.0209
67 | RRIRHRPPRLPRPRPRPCQIPRP | -0.0122
68 | RRIRHRPPRLPRPRPRPCQKPRP | -0.0102
69 | RRIRHRPPRLPRPRPRPCSCPRP | -0.0391
70 | RRIRHRPPRLPRPRPRPCSTPRP | -0.337
71 | RRIRHRPPRLPRPRPRPCVVPRP | 0.000418
72 | RRIRHRPPRLPRPRPRPCYKPRP | -0.522
73 | RRIRHRPPRLPRPRPRPCYVPRP | -1.53
74 | RRIRHRPPRLPRPRPRPDARPRP | 0.133
75 | RRIRHRPPRLPRPRPRPDATPRP | 0.286
